IntAct's records for PubMed 16282588

Key:
[1] = target: tdg_human TDG (UniProt Q13569)
[2] = target: tdg_mouse Tdg (UniProt P56581)
[3] = target: tdg_human TDG (UniProt Q13569); remark: listed apart in the source

Chain of tdg_mouse Tdg (P56581 whole entry): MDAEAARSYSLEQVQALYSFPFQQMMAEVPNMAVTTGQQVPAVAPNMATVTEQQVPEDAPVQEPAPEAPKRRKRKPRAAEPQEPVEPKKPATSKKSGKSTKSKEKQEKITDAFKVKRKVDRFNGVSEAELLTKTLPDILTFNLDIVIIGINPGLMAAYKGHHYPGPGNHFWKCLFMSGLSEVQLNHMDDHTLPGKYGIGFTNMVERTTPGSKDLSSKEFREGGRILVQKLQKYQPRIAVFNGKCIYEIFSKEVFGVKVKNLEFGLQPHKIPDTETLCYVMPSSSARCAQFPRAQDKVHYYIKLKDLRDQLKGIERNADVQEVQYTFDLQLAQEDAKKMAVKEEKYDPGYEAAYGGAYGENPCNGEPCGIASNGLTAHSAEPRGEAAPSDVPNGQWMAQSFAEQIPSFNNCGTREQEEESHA
Chain of tdg_human TDG (Q13569 whole entry): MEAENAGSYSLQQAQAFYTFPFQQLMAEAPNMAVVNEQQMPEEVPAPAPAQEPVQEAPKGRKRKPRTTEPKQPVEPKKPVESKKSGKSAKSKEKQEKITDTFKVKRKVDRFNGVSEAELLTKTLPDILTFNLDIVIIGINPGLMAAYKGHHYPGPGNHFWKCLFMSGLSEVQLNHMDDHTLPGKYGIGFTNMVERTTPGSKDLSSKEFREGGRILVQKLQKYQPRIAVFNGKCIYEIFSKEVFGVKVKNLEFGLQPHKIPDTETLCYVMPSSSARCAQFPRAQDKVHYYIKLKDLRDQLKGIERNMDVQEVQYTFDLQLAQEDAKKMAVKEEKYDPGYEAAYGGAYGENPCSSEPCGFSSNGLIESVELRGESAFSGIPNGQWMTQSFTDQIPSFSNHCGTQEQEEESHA
Chain of Nuclear receptor coactivator 1 (Homo sapiens), Q15788-2 Y991F (Q15788 other isoform, or with tags, fused parts or gaps Y991F): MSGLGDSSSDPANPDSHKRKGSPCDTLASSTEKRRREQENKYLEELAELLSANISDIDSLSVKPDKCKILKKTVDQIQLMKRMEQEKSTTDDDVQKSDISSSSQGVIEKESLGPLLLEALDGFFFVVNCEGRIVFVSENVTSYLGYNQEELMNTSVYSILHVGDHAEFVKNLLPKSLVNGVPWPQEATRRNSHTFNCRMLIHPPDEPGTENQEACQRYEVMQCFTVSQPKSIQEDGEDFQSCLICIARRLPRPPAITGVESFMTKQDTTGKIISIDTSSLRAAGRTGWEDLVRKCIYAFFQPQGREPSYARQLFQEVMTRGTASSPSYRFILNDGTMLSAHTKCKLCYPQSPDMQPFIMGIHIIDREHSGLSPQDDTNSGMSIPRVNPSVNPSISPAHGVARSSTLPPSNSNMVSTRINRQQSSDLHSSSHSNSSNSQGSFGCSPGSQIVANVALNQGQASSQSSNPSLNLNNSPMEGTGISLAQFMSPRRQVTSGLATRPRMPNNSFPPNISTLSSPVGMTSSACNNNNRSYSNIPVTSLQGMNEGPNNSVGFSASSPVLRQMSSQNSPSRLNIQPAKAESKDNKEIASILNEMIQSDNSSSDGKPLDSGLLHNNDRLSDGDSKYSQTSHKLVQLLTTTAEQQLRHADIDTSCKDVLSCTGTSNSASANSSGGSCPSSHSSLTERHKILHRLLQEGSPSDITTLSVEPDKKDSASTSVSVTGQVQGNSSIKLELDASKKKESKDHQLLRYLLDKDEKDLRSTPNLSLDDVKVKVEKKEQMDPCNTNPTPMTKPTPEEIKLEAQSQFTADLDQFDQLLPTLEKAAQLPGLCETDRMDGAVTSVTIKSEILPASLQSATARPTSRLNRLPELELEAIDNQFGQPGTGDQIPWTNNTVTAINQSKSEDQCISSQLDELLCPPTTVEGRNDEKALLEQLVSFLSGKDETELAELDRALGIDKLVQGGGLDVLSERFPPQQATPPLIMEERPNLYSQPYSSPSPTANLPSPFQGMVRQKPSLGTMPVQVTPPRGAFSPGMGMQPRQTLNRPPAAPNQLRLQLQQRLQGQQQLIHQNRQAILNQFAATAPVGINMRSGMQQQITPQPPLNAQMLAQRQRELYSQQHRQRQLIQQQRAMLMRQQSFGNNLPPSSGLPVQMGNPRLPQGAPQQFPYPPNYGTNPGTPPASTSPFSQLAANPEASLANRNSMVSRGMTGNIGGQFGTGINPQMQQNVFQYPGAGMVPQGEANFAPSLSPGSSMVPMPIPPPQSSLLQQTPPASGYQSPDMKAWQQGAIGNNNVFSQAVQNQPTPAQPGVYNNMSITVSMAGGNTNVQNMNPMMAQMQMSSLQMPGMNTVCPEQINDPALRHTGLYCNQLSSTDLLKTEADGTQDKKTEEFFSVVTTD
Chain of Nuclear receptor coactivator 1 (Homo sapiens), Q15788-2 Y991F;Y1169F (Q15788 other isoform, or with tags, fused parts or gaps Y991F;Y1169F): as the sequence (Q15788 other isoform, or with tags, fused parts or gaps Y991F) above
Chain of Nuclear receptor coactivator 1 (Homo sapiens), Q15788-2 Y1169F (Q15788 other isoform, or with tags, fused parts or gaps Y1169F): as the sequence (Q15788 other isoform, or with tags, fused parts or gaps Y991F) above

Substance | effect of a mutation on the interaction [1] | effect of a mutation on the interaction [2] | effect of a mutation on the interaction [3]
Nuclear receptor coactivator 1 (Homo sapiens), Q15788-2 Y1169F | disrupting interaction strength |  | 
Nuclear receptor coactivator 1 (Homo sapiens), Q15788-2 Y991F;Y1169F | disrupting interaction strength |  | 
Nuclear receptor coactivator 1 (Homo sapiens), Q15788 Y991F;Y1169F |  | decreasing interaction strength | decreasing interaction strength

The next lines start with the values.

effect of a mutation on the interaction [1] | effect of a mutation on the interaction [2] | effect of a mutation on the interaction [3] | Substance
 | decreasing interaction strength | decreasing interaction strength | Nuclear receptor coactivator 1 (Homo sapiens), Q15788 Y1169F
decreasing interaction strength |  |  | Nuclear receptor coactivator 1 (Homo sapiens), Q15788-2 Y991F
 | decreasing interaction strength | decreasing interaction strength | Nuclear receptor coactivator 1 (Homo sapiens), Q15788 Y991F
